Results on 24 molecules are retold here after patent US20240043504A1 (published 2024).

“And” between values parts separate entries of the source, which are not always exact repeats. Identical values can stand only once.

B1: mAb10937 (antibody, V domains shown)
VH: QITLKESGPTLVKPTQTLTLTCTFSGFSLSTNVVGVGWIRQPPGKALEWLALIYWNDDKRYSPSLKSRLTITKDTSKNQVVLTMTNMDPVDTATYYCAHGPTGDYFDYWGQGTLVTVSS
VL: not shown
B2: mAb11010 (antibody, V domains shown)
VH: QVQLVESGGGVVQPGRSLRLSCAASGFTFSSYGMHWVRQAPGKGLEWVAVISYDGSYKYYADSVKGRFTISRDNSKNTLYLQMNSLRAEDTAVYYCAIDGGTVTTIFDYWGQGTLVTVSS
VL: not shown
B3: mAb10936 (antibody, V domains shown)
VH: QVQLVESGGGVVQPGRSLRLSCAASGFTFRNYGMHWVRQAPGKGLEWVSVIWYDGSNRYYADSVKGRFTISRDTSKNTLYLQMNSLRAEDTAVYYCARDPPITGTTGGDAFDIWGQGTMVTVSS
VL: not shown
B4: mAb10969 (antibody, V domains shown)
VH: QVQLVESGGGVVQPGRSLRLSCAASGFTFSSYAMHWVRQAPGKGLEWVAVISYDGSNKYYADSVKGRFTISRDNSKNTLYLQMNSLRAEDTAVYYCARDGRTITMVRGVIDDAFDIWGQGTMVTVSS
VL: not shown
B5: mAb11006 (antibody, V domains shown)
VH: EVQLVESGGGLVQPGGSLRLSCAASGFIVSRNYMSWVRQAPGKGLEWVSVIYSGGSTFYADSVKGRFTISRHNSKNTLYLQMNSLKAEDTAVYYCARELRGYFDYWGQGTLVTVSS
VL: DIQLTQSPSFLSASVGDRVTITCWASQGISSYLAWYQQKPGKAPKLLIYAASTLQSGVPSRFSGSGSGTEFTLTISSLQPEDFATYYCQLLNSYPYTFGQGTKLEIKR
B6: mAb11008 (antibody, V domains shown)
VH: EVQLVESGGGLVQPGGSLRLSCAASGFTVSSNYMTWVRQAPGKGLEWVSVIYSGGSTFYADSVKGRFTISRHNSENTLYLQMNSLRAEDTAVYYCARDLAAAGTDYWGQGALVTVSS
VL: DIQLTQSPSFLSASVGDRVTITCWASQGISSYLAWYQQKPGKAPKLLIYAASTLQSGVPSRFSGSGSGTEFTLTISSLQPDDFATYYCQHLNSYLYTFGQGTKLEIKR
B7: mAb10957 (antibody, V domains shown)
VH: EVQLVESGGGLVQPGGSLRLSCAASGVTVSSNYMSWVRQAPGKGLEWVSVIYSGGSTFYADSVKGRFTISRDNSKNTLFLQMNSLRIEDTAVYYCARDLGPYGMDVWGQGTTVTVSS
VL: DIQLTQSPSFLSASVGDRVTITCRASQGISSYLAWYQQKPGKAPKLLIYAASTLQSGVPSRFSGSGSGTQFILTISSLQPEDFATYYCQQLNSYPGFTFGPGTKVDIKR
B8: mAb10971 (antibody, V domains shown)
VH: EVQLVESGGGLIQPGGSLRLSCAASGVTVSSNYMSWVRQAPGKGLEWVSVIYSGGSTFYSDSVKGRFSISRDNSKNTLYLQMNSLRAEDTAVYYCARDLYYYGMDVWGQGTTVTVSS
VL: DIQLTQSPSFLSASVGDRVTITCRASQGISTYLAWYQQKPGKAPKLLIYAASTLQSGVPSRFSGSGSGTEFTLTISSLQPEDFATYYCQQLDSYPGLTFGGGTKVEIKR
B9: mAb10935 (antibody, V domains shown)
VH: EVQLVESGGGLVQPGGSLRLSCAASGFTVSSNYMSWVRQAPGKGLEWVSLIYSGGSTYYADSVKGRFTISRHNSKNTLYLQMNSLRSEDTAVYYCARVPLGDYYYGMDVWGQGTTVTVSS
VL: DIQMTQSPSSLSASVGDRVTITCQASQDINKYLNWYQQKPGKAPKLLIYDASNLETGVPSRFSGSGSGTDFTFTISSLQPEDIATYYCQQSDNLPLTFGGGTKVEIKR
B10: mAb10954 (antibody, V domains shown)
VH: EVQLVESGGGLVQPGGSLRLSCAASGITVSSNYMSWVRQAPGKGLEWVSLIYSGGSTYYADSVKGRFTISRDNSKNTLYLQMNSLRVEDTAVYYCARDHGMAAAGYNYWGQGTLVTVSS
VL: DIQMTQSPSSLSASVGDRVTITCQASQDINKYLNWYQQKPGKAPKLLIYDASNLETGVPSRFSGSGSGTDFTFTINSLQPEDFATYFCQQYDNLPPAFGQGTKVEIKR
B11: mAb10938 (antibody, V domains shown)
VH: EVQLVESGGGLVQPGGSLRLSCAVSGFTVSSNYMSWVRQAPGKGLEWVSLIYSGGSTFYADSVKGRFTISRHNSKNTLYLQMNSLRAEDTAVYYCAREGGYSYDYNYWGQGTLVTVSS
VL: DIQMTQSPSSLSASVGDRVTITCQASQDIRNYLNWYQQKPGKAPKLLIYDASNLETGVPSRFSGIGSGTDFTFTISSLQPEDIATYYCQQYDNLPITFGQGTRLEIKR
B12: mAb10967 (antibody, V domains shown)
VH: EVQLVESGGGLVQPGGSLRLSCAASGFTVSSNYMSWVRQAPGKGLEWVSVIYPGGSTFYADSVKGRFTISRDNSKNTLYLQMNSLRAEDTAVYYCARDQRDFAWGQGTLVTVSS
VL: DIQMTQSPSSLSASVGDRVTITCQASQDISNYLNWYQQKPGKAPKLLIYDASNLETGVPSRFSGSGSGTDFTFTISGLQPEDIATYYCQQYDNLPPTFGQGTRLEIKR
B13: mAb10955 (antibody, V domains shown)
VH: EVQLVESGGGLVQPGGSLRVSCAASGFTVSRNYMSWVRQAPGKGLEWVSVIYSGGSTFYADSVKGRFTISRDNSKNTLYLQMNSLRAEDTAIYYCARYIPRFDPWGQGTLVTVSS
VL: DIQMTQSPSSLSASVGDRVTITCQASQDISNYLNWFQQKPGRAPKLLIYDASNLETGVPSRFSGSGSGTDFTFTISSLQPEDIATYYCQQYDNLPITFGQGTRLEIKR
B14: mAb10932 (antibody, V domains shown)
VH: EVQLVESGGGLVQSGGSLRLSCAASGLTVSSNYMSWVRQAPGKGLEWVSVIYSGGSTFYSDSVKGRFTISRHNSKNTLYLQMNSLRAEDTAVYYCARARGDAFDIWGQGTMVTVSS
VL: not shown
B15: mAb10982 (antibody, V domains shown)
VH: EVQLVESGGGLVQPGGSLRLSCAASGLTVSSNYMSWVRQAPGKGLEWVSVIYSGGTTYYADSVKGRFTISRHNSKNTLSLQMNSLRAEDTAVYYCARGEGANYYGMDVWGQGTTVTVSS
VL: QSVLTQPPSVSGAPGQRVTISCTGSSSNIGTGYDVHWYQQLPGTAPKLLIYGNSNRPSGVPDRFSGSKSGTSASLAITGLQAEDEADYYCQSYDSSLSGYVVFGGGTKLTVLG
B16: mAb10986 (antibody, V domains shown)
VH: EVQLVESGGGLVQPGGSLRLSCAASEFTVSSNYMSWVRQAPGKGLEWVSVIYSGGSTFYADSVKGRFTISRDNSKNTLYLQMNSLRAEDTAVYYCARALPYGDLHFDYWGQGTLVTVSS
VL: QSVLTQPPSVSGAPGQRVTISCTGSSSNIGTGYDVHWYQQLPGTAPKLLIYGNTNRPSGVPDRFSGSKSGTSASLAITGLQAEDEADYYCQSYDSSLSDSYVFGTGTKVTVLG
B17: mAb10985 (antibody, V domains shown)
VH: EVQLVESGGGLVQPGRSLRLSCAASGFTFDDYAMHWVRQAPGKGLEWVSGISWNRGSIGYADSVKGRFTISRDNAKNSLYLQMSSLRAEDTALYYCAKDGERWDSVVVPSARNGMDVWGQGTTVTVSS
VL: QSVLTQPPSVSGAPGQRVTISCTGSSSNIGAGYDVHWYQQLPGTAPKLLIYGNSNRPSGVPDRFSGSKSGTSASLAITGLQAEDEADYYCQSYDSSLSGSYVFGTGTKVTVLG
B18: mAb10939 (antibody, V domains shown)
VH: EVQLVESGGGLVQPGGSLRLSCAASGLTVSSNYMNWVRQVPGKGLEWVSVIYSGGSKFYVDSVKGRFTISRHNSKNTLYLQMNSLRPEDTAVYYCTRDAQYYGMDVWGQGTTVTVSS
VL: DIQMTQSPSSLSASVGDRVTITCRASQSISTYLHWYQQKPGEAPKLLIYAASSLQSGVPSRFSGSGSGTDFTLTISSLQPEDFATYYCQQSYSTPPEIFGQGTKLEIKR
B19: mAb10956 (antibody, V domains shown)
VH: EVQLVESGGGLVQPGGSLRLSCAASGLTVSSNYMSWVRQAPGKGLEWVSVIYSGGSTFYADSVKGRFTISRDNSKNTLYLQMNSLRAEDTAVYYCARDLIKYGMDVWGQGTTVTVSS
VL: not shown
B20: mAb10998 (antibody, V domains shown)
VH: EVQLVESGGGLVHPGGSLRLSCAASGLTVSSNYMSWVRQAPGKGLEWVSVIYSGGSTYYADSVKGRFTISRHNSKNTLFLQMNSLRAEDTAVYYCARDRPITGTTLDVWGQGTTVTVSS
VL: DIQMTQSPSSLFASVGDRVTITCRASQSISSYLNWYQQKPGKAPKLLIYAASSLQSGVPSRFSGSGSGTDFTLTISSLQPEDFAFYYCQQTYSTPPITFGQGTRLEIKR
B21: mAb10965 (antibody, V domains shown)
VH: EVQLVESGGGLIQPGGSLRLSCAASVFTVSYNYMSWVRQAPGKGLEWVSVIYSGGSTYYADSVKGRFTISRDNSKNTLYLQMNSLRAEDTAVYYCARALPGWGGSFEYFDYWGQGTLVTVSS
VL: not shown
B22: mAb10966 (antibody, V domains shown)
VH: EVQLVESGGGLVQPGGSLRLSCAASGLTVSSNYMSWVRQAPGKGLEWVSVIYSGGSTFYADSVKGRFTISRDNSKNTLYLQMNSLRPEDTAVYYCAREGRIAATGYGMDVWGQGTTVTVSS
VL: not shown
B23: mAb10964 (antibody, V domains shown)
VH: QVQLQESGPGLVKPSETLSLTCTVSGGSINNYYWIWIRQPPGKGLEWIGYIYHSGSTNYNPSLKSRVTISVDTSKNQFSLKVSSVTAADTAVYYCANMVRGVYEDDYWGQGTLVTVSS
VL: DIQMTQSPSSLSASVGDRVTITCRASQSISNYLNWYQQKPGKAPKLLIFAASSLRSGVPSRFSGSGSGTDFTLTISSLHPEDFATYYCQQNYNTPLTFGPGTKVDIKR
B24: mAb10984 (antibody, V domains shown)
VH: EVQLVESGGGLVQPGGSLRLSCAASGLTVNRNYMSWVRQAPGKGLEWVSLIYSGGSTYYADSVKGRFTISRDNSKNTLYLQMNSLRLEDTAVYYCARGELGIPYGMDVWGQGTTVTVSS
VL: QSVLTQPPSVSAAPGQKVTISCSGSSSNIGNNYVSWYQQLPGTAPKLLIYDNNKRPSGIPDRFSGSKSGTSATLGITGLQTGDEADYYCGTWDSSLSAGVFGGGTKLTVLG

For the assay, the target named is receptor binding domain (RBD) portion of the SARS-CoV-2 Spike protein (amino acids Arg319-Phe541) ex (SARS-CoV-2).
B1: the concentration for half-maximal inhibition (IC50) amounted to 0.0649 nM.
In the case of B2 it was 0.147 nM.
Regarding B3, the 50% inhibitory concentration (IC50) is 0.0875 nM and 0.071 nM.
In the case of B4 it was 0.215 nM; in that of B5, 0.22 nM.
Consider B6, for which the half-inhibitory concentration (IC50) is 1.49 nM.
In the case of B7 it was 0.169 nM; in that of B8, 0.149 nM.
For the molecule B9, the half-inhibitory concentration (IC50) is 0.102 nM and 0.0694 nM.
In the case of B10 it was 0.0711 nM.
Consider B11, for which the IC50 was 0.275 nM.
In turn, B12 displayed an IC50 of 0.28 nM.
Then B13, with 0.141 nM; and B14, with 0.373 nM.
With B15, the IC50 turned out to be 0.116 nM.
Molecule B16 registered a 50% inhibitory concentration (IC50) of 0.0754 nM.
Then B17, with 0.0696 nM and 0.0411 nM; and B18, with 0.175 nM and 0.263 nM; and B19, with 0.185 nM.
Regarding B20, the IC50 turned out to be 4.3 nM.
Then B21, with 0.213 nM; and B22, with 0.16 nM; and B23, with 0.0683 nM and 0.0625 nM.
B24 returned an IC50 of 0.0775 nM.

The term IC50 denotes the concentration that gives 50% inhibition.
